Where two headings read alike, the source gives them in different places.
B1: 1T0473 (antibody, V domains shown)
VH: QVQLVQSGAEVKKPGASVKVSCKASGYTFPSYEINWVRQATGQGLEWMGWMDPKSGKTGYAQKFQGRVTMTRNPSISTAYLELSSLRSEDSAVYYCARGNQWFGELLSSYYGLDVWGQGTTVTVSS
VL: EIVLTQSPGTLSLSPGEGATLSCRASQSVSSSFLTWYHQKPGQAPRLLIYGASNRATGVPDRFSGGGSGTDFTLTISRLEPEDFGVYYCQQYGSSLITFGPGTKVDIK
B2: 3T0123 (antibody, V domains shown)
VH: QVQLVQSGSEVKKPGASVKVSCQASGYRFANYGISWVRQAPGQGLEWMGWISPLKRDPDYAQNFQGRVTMSRDTSTNTAYMELRGLTSGDTAVYFCARGLGDSYSNAWFVYVFDYWGQGSPVTVSS
VL: EIVMTQSPATLSVSPGERVTLSCRTSQRIHTNLAWYQQKSGQAPRLVMYDAFTRAPGVPARFSGGGSETEFTLTISSLQSEDFALYYCQQYSQRPTFGLGTKLEIK
B3: 3T0265 (antibody, V domains shown)
VH: EVQLVESGGNLAKPGGSLRLSCAASGFTFSDAWMTWVRQAPGKGLEWVGRIKSNADGGATEYAAPVRGRFTISRDDSRSSLFLQMNSLKTEDTAVYYCLTPPPRRYWGQGILVTVSS
VL: QSVLTQPPSVSGAPGQRVAISCTGSYSNIGAGYDVHWYQQFPGAAPKLLIYAYTNRPAGVPDRFSGSKSGSSASLVISGLQADDEADYYCQSYDARLRDGEVFGGGTKLTV
B4: 4T0578 (antibody, V domains shown)
VH: EVQLVESGGALVQPGGSLRLSCAASGFTFSRYDIHWVRQASGKGLEWVSAIGKAGDAYYAGSVRGRFTISRENAKNSLYLQMNSLRAGDTAVYYCARASFGDLYFDLWGRGTLVTVSS
VL: DIVMTQSPDSLAVSLGERATINCKSSQSLLHSSNNKNSVAWYQQKPGQPPKLLIYWASTREFGVPDRFSGSGSGTDFALTISSLQAEDVAVYVCQQYYNSPLTFGPGTKVDIK
B5: 3T0468 (antibody, V domains shown)
VH: EVQLVESGGHLIQPGGSLRLSCAASGFTFRIYDMHWVRQGRRKGLEWVSAIGAAGDTYYSDSVKGRFTISRENAKSSLYLQMNSLSVGDTAVYYCARAAFGAVYYDNWGQGILVTVSS
VL: EIVLTQSPGTLSLSPGERATLSCRASENVDSRFLVWYQQKVGQAPRLLIYGASRRATGIPDRFSGSGSGTDFALTISRLEPEDLAVYYCQQYGRSPITFGQGTRLEIK
B6: 3T0258 (antibody, V domains shown)
VH: QVQLVQSGAEVKQPGASVKVTCKASGSTRSSYDLIWVRQAPGQGLELMGRVNTHNGNTDYAQKFQGRVTMTTDTSTTTAHMELRNLRSDDTAVYYCAWRRSSWFAFDVWGQGTAVTVSS
VL: EIVLTQSPGTLSLSPGERGTLSCRASQSISGNYLGWYQQSPGQAPRLLIYGASNRATGVPDRFSGSGSGTDFTLTISRLEPEDFAVYYCQQYVSSPYTFGQGTKLEIK
B7: 5T0223 (antibody, V domains shown)
VH: EVQLVESGGGLVKPGGSLRLSCEASGFTFRNTWMNWVRQAPGKGLEWVGRIKSNTDGGTADYAAPVKGRFTISRDDSKSTLFLEMISLRTEDTGFYYCTKGGPGAHSWGLGTLVTVSS
VL: QSVLTQPPSVSGAPGQRVTISCTGSSSNIGAGYDVQWYQQLPGTAPKVLIYHNTNRPSGVPDRFSGSRSGTSASLVITGLQAEDEADYYCQTYDSRLSDHWVFGGGTKLTVL
B8: 5T0180 (antibody, V domains shown)
VH: EVQLVESGGGLVKPGGSLRLSCAASGFSFGNAWMNWVRQAPGKGLEWVGRIKSKSDGGTTDYAAPVKDRFIISRDDSKKTLYLQMNSLRREDTAVYYCVRGPFYCDTCGPNDYWGQGTLVTVSS
VL: QSVLTQPPSVSGAPGQRVTISCTGSSSNIGAGYDVQWYQQLPGTAPKVLIYGNNNRPSGVPDRFSGSKSGSSASLAITGLQAEDEADYYCQTYDSRLRDQWVFGGGTKLTVL
B9: 1T0655 (antibody, V domains shown)
VH: QVQLVQSGAEVKKPGASVKVSCKASGYTFTSYYMHWVRQVPGQGLEWMGIIKAGNGGTNYAQNFQGRITVTRDTSTSTVYMELSSLRSEDTAVYYCARDRQWLPLNGYSYFNYGMDVWGQGTTVTVSS
VL: DIQMTQSPSSLSASVGDKITITCRASQSISTYLNWYQQRPGRAPKLLIFGASSLQSGVPSRFSGSGSGTVFTLSISSLQPDDFGSFYCQQSFSSPRTFGQGTKVEIK
B10: 1T0451 (antibody, V domains shown)
VH: QVQLVQSGAEVKKPGASVKISCEASGYNFNGYVIDWVRQAPGQRLEWMGWINPGNGNTKFSPKFQGRVTFTRAASASTAYMELSSLTSEDTALYFCARGRGTSYYYAFDVWGQGTTVTVSS
VL: DIQMTQFPSSLSASVGDRVTISCRASQNISNYLNWYQQKPGKAPKFLIYAASNLQSGVPSRFSGSGSGTGFTLTISNLQPEDFAIYYCQQTYRSPLYTFGQGTKLEIK
B11: 5T0337 (antibody, V domains shown)
VH: EVQLVESGGGLVKPGGSLRISCAASGFTFNNAWMNWVRQSPGKGLEWVGRIKSKSDAGTTDYAAPVKGRFIISRDDSKKTLFLQMNSLKIEDTAIYFCMTGFEHTYSYFDLWGRGTQVTVSS
VL: QSVLTQPPSVSGAPGQRVIISCIGGSSNIGAGYDVKWYQQLLPGTAPRLLIYGNTNRPSGVPDRFSGSKSGTSASLAITGLQAEDEADYYCQSYDSRLRDAWVFGGGTKLTVL
B12: 4m0368 (antibody, V domains shown)
VH: QVQLQESGPGLVKPSGTLSLTCAVSGGSISGTNWWTWVRQPPGRGLEWIGEIYYRGSPNYNPSLKSRVTISVDQSKSQFSLKLTSVTAADTAVYYCLRLSHYGGAWGQGTLVTVSS
VL: DIQLTQSPSSLSASVGDRVTITCRASQSISTYLNWYQQKPGKAPKFLIFSASNLQSGVPSRFSGGGSGTDFTLTISSLQPEDFATYYCQQTYNTPRTFGQGTKVEIK
B13: 4T0429 (antibody, V domains shown)
VH: QVQLQQWGAGLLKPSETLSLTCAVYRGSFITYYWSWVRQPPGRGLEWIGEIYKDGSASYNPSLKNRVTISLDMSKNHFSLNLDSVTAADTAVYYCARHGHTGMDVWGQGTTVTVSS
VL: QSVLTQPPSTSGTPGQRVTISCSGSSSNIGLNYVYWYQQLPGTAPKLLIYRNNQRPSGVPDRFSGSKSGTSASLAISGLRSEDEADYYCAAWDDSLSAYIFGTGTKVTVL
B14: 1T0139 (antibody, V domains shown)
VH: QVQLQESGPGLVKPSETLSLTCIVSGGSLSSYYWSWVRQPAGKGLQWIGHIYTTGSTNYNPSLKSRVTMSIDTSKNQFSLRLSSVTAADTAVYYCARESYRYNAYDIHPFDYWGQGTLVTVSS
VL: SYELTQSSSVSVSPGQTASITCSGDKLGDNYVCWYQQKPGQSPTLVIYQDNRRPSGIPERFSGSNSGNTATLTIRGTQALDEADYYCQAWASNTVVFGGGTKLTVL
B15: 5T0376 (antibody, V domains shown)
VH: QVQLQESGPGLVKPSETLSLTCSVSGASISTLYWSWIRQPPGKGLEWIGYMHSSGTTNYNPSLESRVTMSIDTSRNQFSLKLTSVTAADTAVYYCARGLLGPGDSWGQGTLVTVSS
VL: QSALTQPASVSGSPGQSITISCTGTSSDVGGYNYVSWYQQYPGKAPKLMIYEVTSRPSGVSNRFSGSKSGNTASLTISGLQAEDEGDYYCSSYKTGSTPVVFGGGTKLTVL
B16: 4T0570 (antibody, V domains shown)
VH: QVQLVQSGAEVKKPGASIKVSCKASGYTFVSKYIHWVRQAPGQGLEWMGIINPSGGRTDYAQKFQGRVTISRDTSTSTVYMELSSLRSEDTAFYYCARALPFRVTGARDVFDIWGQGTMVTVSS
VL: DIQMTQSPSSLSASVGDRVTITCRASQGISTNLAWFQQRPGKAPKSLVYAASTLQNGVPSKFSGSGSGTDFTLTISSLQPEDFATYYCQQYYTYPLTFGGGTKVEIK
B17: 4T0306 (antibody, V domains shown)
VH: QVQLQQSGPGLVRPSQTLSLICAISGDSVSDNNAAWNWIRQSPSRGLEWLGRTYFRSRWYNDYPESLKGRVIINPDTAENQVSLQLSSVTPGDTAVYYCVREYYDLWNGFYPGGAMDVWGQGTTVTVSS
VL: DIQLTQSPSSLSASVGDRVTITCRASQDISDFLNWFQQKPGKAPKLLIYDVSKLARGVPSRFSGSASGTDFTFTISSLQPEDIATYYCQQYDDLPRTFGQGTKLEIK
B18: 4T0726 (antibody, V domains shown)
VH: QVQLVQSGVEVKEPGASVRVSCKASGYTFTHYGITWVRQAPGQGLEWMGWISGYNGNTDYAQKFQGRITMTTDTSTSTAYMELGRLTSDDTAVYYCARTITMILLGWFDPWGQGTLVTVSS
VL: EIVLTQSPGTLSLSPGERATLSCRASQSVSSNYLAWYQQKPGQAPRLLISGASNRATGLPDGFSGSGSGTDFTLTISRLEPEDFAVFFCQQYGTSPLTFGPGTKVDIK
B19: 5T0202 (antibody, V domains shown)
VH: EVQLVESGGGLVKPGGSLRLSCGASGFSFNDAWMNWVRQAPGKGLEWVGRIKSKADGGGSDTAAPVKGRFIISRDDSKNTLFLQMERLKSEDTGVYYCTTSLNIWGTYRDCWGQGTLVTVSS
VL: QSVLTQPPSVSGAPGQRVTISCTGSYSNIGAGYDVRWYQQLPETAPKLLIYGNNNRPSGVPDRFSGSKSGTSASLAITGLQAEDEADYYCQSYDSRLRDSWVFGGGTRLTVL
B20: 1T0201 (antibody, V domains shown)
VH: EVQLVESGGGLVKPGGSLRLSCAAAGFSFSKAWMNWVRQAPGKGLEWVGRIKSKTDGGTTDYTAPVKGRFIISRDDSKNMLYLQMNSLKAEDTAVYWCTTRVDMEWGKYGTDVWGQGTTVTVSS
VL: QSVLTQPPSVSGAPGQRVTISCTGSSSNIGAGYDVHWYQKLPGTAPKLLIYDKNIRPSGVPDRFSGSKSGVSASLAITGLQAEDEADYYCQSYDSRLSDSWVFGGGTKLTVL

Assays:
[1] = molecular target: EBOV Mayinga (GenBank: NC_002549) (Zaire Ebolavirus (EBOV Mayinga)) (UniProt Q05320); experiment: cell-based or functional assay
[2] = molecular target: EBOV Mayinga (GenBank: NC_002549) (Zaire Ebolavirus (EBOV Mayinga)) (UniProt Q05320); experiment: cell-based or functional assay; remark: listed apart in the source

Chain of UniProt Q05320 (Q05320 33-676 limits assumed): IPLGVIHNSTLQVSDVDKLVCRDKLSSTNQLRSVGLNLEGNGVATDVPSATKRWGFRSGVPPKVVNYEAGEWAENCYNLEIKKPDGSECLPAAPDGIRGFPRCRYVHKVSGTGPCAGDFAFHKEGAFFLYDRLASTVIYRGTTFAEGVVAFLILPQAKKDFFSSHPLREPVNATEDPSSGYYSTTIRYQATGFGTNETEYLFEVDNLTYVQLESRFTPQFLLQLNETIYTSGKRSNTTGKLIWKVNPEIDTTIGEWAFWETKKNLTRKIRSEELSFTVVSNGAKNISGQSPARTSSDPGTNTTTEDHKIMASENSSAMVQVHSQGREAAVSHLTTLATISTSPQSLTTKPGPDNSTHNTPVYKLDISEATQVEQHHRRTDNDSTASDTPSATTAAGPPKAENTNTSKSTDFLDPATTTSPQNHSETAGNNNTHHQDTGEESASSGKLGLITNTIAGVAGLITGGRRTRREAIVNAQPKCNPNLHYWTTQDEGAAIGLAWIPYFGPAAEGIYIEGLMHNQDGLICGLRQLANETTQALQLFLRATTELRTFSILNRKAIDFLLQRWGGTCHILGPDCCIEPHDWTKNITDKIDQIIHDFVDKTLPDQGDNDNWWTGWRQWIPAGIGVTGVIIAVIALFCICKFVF

Molecule	neutralization concentration (GMC, CPE reduction on Vero C1008 cells) [1]	neutralization concentration (GMC, CPE reduction on Vero C1008 cells) [2]
mAb114 (antibody)	0.744 µg/mL	
B1		2.63 µg/mL
B2		0.52 µg/mL
B3		0.44 µg/mL
B4		0.45 µg/mL
B5		2.1 µg/mL
B6		0.06 µg/mL
B7		1.86 µg/mL
B8		12.5 µg/mL
B9		0.08 µg/mL
B10		2.5 µg/mL
B11		2.21 µg/mL
B12		0.13 µg/mL
B13		35 µg/mL
B14		7.44 µg/mL
B15		12.5 µg/mL
B16		0.09 µg/mL
B17		100 µg/mL
B18		2.56 µg/mL
B19		2.5 µg/mL
B20		2.63 µg/mL
